The values that follow come from patent US20080206232A1.

In one assay the target is LXRα. The experiment in a line: cell-based or functional assay.
A further assay has as its target SREBP1c. The experiment in a line: cell-based or functional assay.

For the substance “Flag-PGC-1β (from UniProt Q8VHJ7 1-1014)”, in the assay with LXRα, the luciferase activity of 4×LXRE-luc in transfected H2.35 hepatoma cells, with LXRα/RXR and LXR ligand is more than 240 fold; the promoter activity of ABCA1-luc in transfected H2.35 hepatoma cells was 2 to 3 fold. This substance also had a luciferase activity of the FAS promoter reporter (FAS-700 luc) in transfected H2.35 hepatoma cells with SREBP1c of 17 fold.
Substance Flag-PGC-1α showed a promoter activity of ABCA1-luc in transfected H2.35 hepatoma cells with LXRα of 2 to 3 fold.
